Test [1] deals with T1, MYD88 L265P peptide on HLA-B*07:02 (human).
T1 peptide: RPIPIKYKAM
The test can be described thus: printed as KD (TCR affinity/avidity): non-linear curve analysis of the IFNγ ELISA response; TCR-transduced CD8+ T cells from healthy donors with K562 cells transduced with HLA*B07:02 and loaded with titrated peptide; full-length, on cells. In general terms: An ELISA detects its analyte on a solid surface through an enzyme-linked reagent.

Test [2] has as its target T2, human self peptide predicted by Expitope for TCR2304 (source protein not named) peptide on HLA-B*07:02 (human).
T2 peptide: LPIHITYAAM
The test can be described thus: cytokine release.

In test [3] the target is T3, human self peptide predicted by Expitope for TCR2304 (source protein not named) peptide on HLA-B*07:02 (human).
T3 peptide: RPRMIGYGAI
The test can be described thus: cytokine release.

Test [4] has as its target T4, human self peptide predicted by Expitope for TCR2304 (source protein not named) peptide on HLA-B*07:02 (human).
T4 peptide: RPAMIPYWAL
The test can be described thus: cytokine release.

Test [5] addresses T5, human self peptide predicted by Expitope for TCR2304 (source protein not named) peptide on HLA-B*07:02 (human).
T5 peptide: VPIIIKYLMF
The test can be described thus: cytokine release.

The target in test [6] is T6, human self peptide predicted by Expitope for TCR2304 (source protein not named) peptide on HLA-B*07:02 (human).
T6 peptide: RPVPISYHQL
The test can be described thus: cytokine release.

For test [7], the target named is T7, human self peptide predicted by Expitope for TCR2304 (source protein not named) peptide on HLA-B*07:02 (human).
T7 peptide: KPIRIGYKIW
The test can be described thus: cytokine release.

In test [8] the target is T8, human self peptide predicted by Expitope for TCR2304 (source protein not named) peptide on HLA-B*07:02 (human).
T8 peptide: RPDLIDYKSL
The test can be described thus: cytokine release.

The target of test [9] is T9, human self peptide predicted by Expitope for TCR2304 (source protein not named) peptide on HLA-B*07:02 (human).
T9 peptide: LPLYISYVAM
The test can be described thus: cytokine release.

Test [10] has as its target T10, human self peptide predicted by Expitope for TCR2304 (source protein not named) peptide on HLA-B*07:02 (human).
T10 peptide: LPTRIAYYAM
The test can be described thus: cytokine release.

Test [11] concerns the target T11, human self peptide predicted by Expitope for TCR2304 (source protein not named) peptide on HLA-B*07:02 (human).
T11 peptide: TPPKIPYKAI
The test can be described thus: cytokine release.

In test [12] the target is T12, human self peptide predicted by Expitope for TCR2304 (source protein not named) peptide on HLA-B*07:02 (human).
T12 peptide: LPQSIVYKYM
The test can be described thus: cytokine release.

Test [13] has as its target T13, human self peptide predicted by Expitope for TCR2304 (source protein not named) peptide on HLA-B*07:02 (human).
T13 peptide: RPQPIYYGFS
The test can be described thus: cytokine release.

In test [14] the target is T14, MYD88 L265P epitope of SEQ ID NO: 2 with alanine at position 2 (alanine scan); residues derived from the … (human).
T14 peptide: RAIPIKYKAM
The test can be described thus: cytokine release.

The text below walks through data of US20220064257A1 (published 2022).

Numbering of substitutions follows the chain as printed. “And” between values parts separate entries of the source, which are not always exact repeats. Equal entries are not always repeated.

B1: TCR2716 (TCR, V domains shown)
Valpha: AQTVTQSQPEMSVQEAETVTLSCTYDTSENNYYLFWYKQPPSRQMILVIRQEAYKQQNATENRFSVNFQKAAKSFSLKISDSQLGDTAMYFCAFMKPYSGGGADGLTFGKGTHLIIQP
Vbeta: AAGVIQSPRHLIKEKRETATLKCYPIPRHDTVYWYQQGPGQDPQFLISFYEKMQSDKGSIPDRFSAQQFSDYHSELNMSSLELGDSALYFCASSLAGTTVYNEQFFGPGTRLTVL
On to B1, for which the EC50 of peptide in test [1] was 0.099 µg/ml and 81 nM.

B2: TCR2207 (TCR, V domains shown)
Valpha: GQNIDQPTEMTATEGAIVQINCTYQTSGFNGLFWYQQHAGEAPTFLSYNVLDGLEEKGRFSSFLSRSKGYSYLLLKELQMKDSASYLCAVDVGYSTLTFGKGTMLLVSP
Vbeta: GAVVSQHPSWVICKSGTSVKIECRSLDFQATTMFWYRQFPKQSLMLMATSNEGSKATYEQGVEKDKFLINHASLTLSTLTVTSAHPEDSSFYICSARDRSGTLGGELFFGEGSRLTVL
Consider B2, for which the EC50 of peptide in [1] is 0.003 µg/ml and 2.4 nM.

B3: TCR2219 (TCR, V domains shown)
Valpha: QQPVQSPQAVILREGEDAVINCSSSKALYSVHWYRQKHGEAPVFLMILLKGGEQMRHEKIFASFNEKKQQSSLYLTASQLSYSGTYFCGTAHLRAGSYQLTFGKGTKLSVIP
Vbeta: EAQVTQNPRYLITVTGKKLTVTCSQNMNHEYMSWYRQDPGLGLRQIYYSMNVEVTDKGDVPEGYKVSRKEKRNFPLILESPSPNQTSLYFCASSSSSGGAFNEQFFGPGTRLTVL
Turning to B3, the EC50 of peptide in test [1] was 0.123 µg/ml and 100 nM.

B4: TCR2202 (TCR, V domains shown)
Valpha: LAKTTQPISMDSYEGQEVNITCSHNNIATNDYITWYQQFPSQGPRFIIQGYKTKVTNEVASLFIPADRKSSTLSLPRVSLSDTAVYYCLSLSDSNYQLIWGAGTKLIIKP
Vbeta: DSGVTQTPKHLITATGQRVTLRCSPRSGDLSVYWYQQSLDQGLQFLIQYYNGEERAKGNILERFSAQQFPDLHSELNLSSLELGDSALYFCASSVGQGSYEQYFGPGTRLTVT
In the case of B4, in test [1], the EC50 of peptide is 0.033 µg/ml and 27 nM.

B5: TCR2719 (TCR, V domains shown)
Valpha: B4 Valpha with S90V, L91G, S92A
Vbeta: B4 Vbeta with V95P, Q97G, S99A
On to B5, for which the EC50 of peptide in test [1] is 0.024 µg/ml and 19 nM.

B6: TCR2205 (TCR, V domains shown)
Valpha: LAKTTQPISMDSYEGQEVNITCSHNNIATNDYITWYQQFPSQGPRFIIQGYKTKVTNEVASLFIPADRKSSTLSLPRVSLSDTAVYYCLVGRDGGSYIPTFGRGTSLIVHP
Vbeta: B4 Vbeta with Q48H, V95A, S99A
For the molecule B6, the EC50 of peptide in test [1] was 0.004 µg/ml and 3.2 nM.

B7: TCR2705 (TCR, V domains shown)
Valpha: QKEVEQDPGPLSVPEGAIVSLNCTYSNSAFQYFMWYRQYSRKGPELLMYTYSSGNKEDGRFTAQVDKSSKYISLFIRDSQPSDSATYLCAMSGTGGFKTIFGAGTRLFVKA
Vbeta: ETGVTQTPRHLVMGMTNKKSLKCEQHLGHNAMYWYKQSAKKPLELMFVYSLEERVENNSVPSRFSPECPNSSHLFLHLHTLQPEDSALYLCASSQDRPNYYGYTFGSGTRLTVV
With B7, the EC50 of peptide in test [1] is 0.02 µg/ml and 16 nM.

B8: TCR2304 (TCR, V domains shown)
Valpha: GQNIDQPTEMTATEGAIVQINCTYQTSGFNGLFWYQQHAGEAPTFLSYNVLDGLEEKGRFSSFLSRSKGYSYLLLKELQMKDSASYLCAVRASGTYKYIFGTGTRLKVLA
Vbeta: DAGVIQSPRHEVTEMGQEVTLRCKPISGHNSLFWYRQTMMRGLELLIYFNNNVPIDDSGMPEDRFSAKMPNASFSTLKIQPSEPRDSAVYFCASQDSYEQYFGPGTRLTVT
Take B8: the binding result in test [2], in test [3], in test [4], in [5], in [6] and in test [7] was “no recognition” in each case. The binding result in test [8], in test [9], in [10], in test [11], in [12] and in test [13] was “no recognition” in each case. For the same molecule, the binding result in test [14] is “no recognition”. In addition, in [1], the EC50 of peptide was 0.003 µg/ml and 2.4 nM.

B9: TCR1610 (TCR, V domains shown)
Valpha: KQEVTQIPAALSVPEGENLVLNCSFTDSAIYNLQWFRQDPGKGLTSLLLIQSSQREQTSGRLNASLDKSSGRSTLYIAASQPGDSATYLCAPLGGGYNKLIFGAGTRLAVHP
Vbeta: NAGVTQTPKFRILKIGQSMTLQCAQDMNHNYMYWYRQDPGMGLKLIYYSVGAGITDKGEVPNGYNVSRSTTEDFPLRLELAAPSQTSVYFCASRLPTTDEKLFFGSGTQLSVL
For the molecule B9, the EC50 of peptide in [1] is 0.009 µg/ml and 7.4 nM.

B10: TCR1605 (TCR, V domains shown)
Valpha: GESVGLHLPTLSVQEGDNSIINCAYSNSASDYFIWYKQESGKGPQFIIDIRSNMDKRQGQRVTVLLNKTVKHLSLQIAATQPGDSAVYFCAEGTGSARQLTFGSGTQLTVLP
Vbeta: DVKVTQSSRYLVKRTGEKVFLECVQDMDHENMFWYRQDPGLGLRLIYFSYDVKMKEKGDIPEGYSVSREKKERFSLILESASTNQTSMYLCASGPFRDSVLTLVANVLTFGAGSRLTVL
In the case of B10, the EC50 of peptide in [1] was 0.009 µg/ml and 7.4 nM.

B11: TCR1336 (TCR, V domains shown)
Valpha: GENVEQHPSTLSVQEGDSAVIKCTYSDSASNYFPWYKQELGKRPQLIIDIRSNVGEKKDQRIAVTLNKTAKHFSLHITETQPEDSAVYFCAASGRYDYKLSFGAGTTVTVRA
Vbeta: DAMVIQNPRYQVTQFGKPVTLSCSQTLNHNVMYWYQQKSSQAPKLLFHYYDKDFNNEADTPDNFQSRRPNTSFCFLDIRSPGLGDAAMYLCATASDLQGDRSTEAFFGQGTRLTVV
For B11, the EC50 of peptide in test [1] is 0.387 µg/ml and 310 nM.

B12: TCR2709 (TCR, V domains shown)
Valpha: DAKTTQPNSMESNEEEPVHLPCNHSTISGTDYIHWYRQLPSQGPEYVIHGLTSNVNNRMASLAIAEDRKSSTLILHRATLRDAAVYYCILRDRYGGSQGNLIFGKGTKLSVKP
Vbeta: NAGVTQTPKFRVLKTGQSMTLLCAQDMNHEYMYWYRQDPGMGLRLIHYSVGEGTTAKGEVPDGYNVSRLKKQNFLLGLESAAPSQTSVYFCASSYWPTTGESTDTQYFGPGTRLTVL
Turning to B12, in test [1], the EC50 of peptide is 0.102 µg/ml and 83 nM.
